From patent publication US20200283521A1 (GRANULAR THERAPEUTICS, published 2020)

Tests used:
Assay in all cases: direct ELISA on coated protein, IgG1
hCD4 = molecular target: T1, hCD4 (human, UniProt P01730)
T1 construct: purified recombinant protein; member of the panel m9

hEpCAM-Fc = molecular target: T2, hEpCAM-Fc (human, UniProt P16422)
T2 construct: Fc fusion; member of the panel m9
T2 sequence (looked up): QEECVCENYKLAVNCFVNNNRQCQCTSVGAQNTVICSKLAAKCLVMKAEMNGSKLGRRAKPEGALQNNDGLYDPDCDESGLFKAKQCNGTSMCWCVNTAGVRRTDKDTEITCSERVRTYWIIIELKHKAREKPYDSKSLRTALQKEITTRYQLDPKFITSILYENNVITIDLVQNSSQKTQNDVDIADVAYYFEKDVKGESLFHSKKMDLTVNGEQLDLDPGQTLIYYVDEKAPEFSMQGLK

hOX40-Fc = molecular target: T3, hOX40-Fc
T3 construct: member of the panel m9
T3 chain: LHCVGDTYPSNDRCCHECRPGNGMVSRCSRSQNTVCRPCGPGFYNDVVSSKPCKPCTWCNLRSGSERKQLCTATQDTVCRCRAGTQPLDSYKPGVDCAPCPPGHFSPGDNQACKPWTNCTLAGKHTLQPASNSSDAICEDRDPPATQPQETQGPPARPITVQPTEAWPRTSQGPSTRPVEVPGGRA

hVCAM-1 = molecular target: T4, hVCAM-1 (human, UniProt P19320)
T4 construct: purified recombinant protein; member of the panel m9
T4 sequence (looked up): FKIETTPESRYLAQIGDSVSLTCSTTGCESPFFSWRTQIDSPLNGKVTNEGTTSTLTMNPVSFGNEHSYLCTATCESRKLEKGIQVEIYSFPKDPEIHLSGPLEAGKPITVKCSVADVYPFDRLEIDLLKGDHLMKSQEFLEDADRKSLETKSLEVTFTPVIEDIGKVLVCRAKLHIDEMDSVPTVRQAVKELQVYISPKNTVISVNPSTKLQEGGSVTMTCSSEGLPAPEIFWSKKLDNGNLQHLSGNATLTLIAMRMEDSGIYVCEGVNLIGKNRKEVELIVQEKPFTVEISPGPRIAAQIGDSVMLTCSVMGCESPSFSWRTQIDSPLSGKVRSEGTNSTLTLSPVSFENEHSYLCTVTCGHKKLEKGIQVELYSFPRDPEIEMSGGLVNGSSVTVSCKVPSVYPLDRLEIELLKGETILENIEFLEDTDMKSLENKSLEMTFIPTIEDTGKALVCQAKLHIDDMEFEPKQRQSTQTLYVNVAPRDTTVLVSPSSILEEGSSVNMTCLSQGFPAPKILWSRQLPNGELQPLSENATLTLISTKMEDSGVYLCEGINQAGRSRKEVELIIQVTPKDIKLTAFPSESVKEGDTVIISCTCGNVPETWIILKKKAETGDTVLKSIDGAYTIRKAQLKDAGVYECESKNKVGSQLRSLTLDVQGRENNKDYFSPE

hBAFFR-Fc = molecular target: T5, hBAFFR-Fc (human, UniProt Q96RJ3)
T5 construct: Fc fusion; member of the panel m9
T5 sequence (Q96RJ3 7-71 limits assumed): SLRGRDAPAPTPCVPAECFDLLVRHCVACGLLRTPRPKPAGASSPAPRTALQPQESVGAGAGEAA

h4-1BB-Fc = molecular target: T6, h4-1BB-Fc
T6 construct: member of the panel m9
T6 sequence (chain, as listed by the source limits assumed): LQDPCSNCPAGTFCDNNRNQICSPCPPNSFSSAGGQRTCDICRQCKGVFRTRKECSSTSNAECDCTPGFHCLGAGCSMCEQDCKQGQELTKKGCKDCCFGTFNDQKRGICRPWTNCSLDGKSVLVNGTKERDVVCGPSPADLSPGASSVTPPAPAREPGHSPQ

hICAM-1-Fc = molecular target: T7, hICAM-1-Fc (human, UniProt P05362)
T7 construct: Fc fusion; member of the panel m9
T7 sequence (P05362 28-480 limits assumed): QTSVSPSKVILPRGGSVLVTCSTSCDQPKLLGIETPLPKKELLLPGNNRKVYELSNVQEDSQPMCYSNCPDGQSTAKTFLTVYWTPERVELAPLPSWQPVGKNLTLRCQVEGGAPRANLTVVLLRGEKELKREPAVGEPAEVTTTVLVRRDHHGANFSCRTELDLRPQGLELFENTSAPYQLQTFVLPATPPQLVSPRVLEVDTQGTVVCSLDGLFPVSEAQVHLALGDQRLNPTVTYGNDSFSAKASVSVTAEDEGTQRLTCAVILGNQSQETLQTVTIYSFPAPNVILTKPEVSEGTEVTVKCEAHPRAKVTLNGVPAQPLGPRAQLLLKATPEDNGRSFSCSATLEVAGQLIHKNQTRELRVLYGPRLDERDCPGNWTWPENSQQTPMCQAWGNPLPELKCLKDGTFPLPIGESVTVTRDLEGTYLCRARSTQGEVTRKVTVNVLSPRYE

hCMET-Fc = molecular target: T8, hCMET-Fc (The natural ectodomain is cleaved by furin after residue 307 into disulfide-linked alpha and beta chains. It is given here as one continuous stretch.)
T8 construct: member of the panel m9
T8 chain: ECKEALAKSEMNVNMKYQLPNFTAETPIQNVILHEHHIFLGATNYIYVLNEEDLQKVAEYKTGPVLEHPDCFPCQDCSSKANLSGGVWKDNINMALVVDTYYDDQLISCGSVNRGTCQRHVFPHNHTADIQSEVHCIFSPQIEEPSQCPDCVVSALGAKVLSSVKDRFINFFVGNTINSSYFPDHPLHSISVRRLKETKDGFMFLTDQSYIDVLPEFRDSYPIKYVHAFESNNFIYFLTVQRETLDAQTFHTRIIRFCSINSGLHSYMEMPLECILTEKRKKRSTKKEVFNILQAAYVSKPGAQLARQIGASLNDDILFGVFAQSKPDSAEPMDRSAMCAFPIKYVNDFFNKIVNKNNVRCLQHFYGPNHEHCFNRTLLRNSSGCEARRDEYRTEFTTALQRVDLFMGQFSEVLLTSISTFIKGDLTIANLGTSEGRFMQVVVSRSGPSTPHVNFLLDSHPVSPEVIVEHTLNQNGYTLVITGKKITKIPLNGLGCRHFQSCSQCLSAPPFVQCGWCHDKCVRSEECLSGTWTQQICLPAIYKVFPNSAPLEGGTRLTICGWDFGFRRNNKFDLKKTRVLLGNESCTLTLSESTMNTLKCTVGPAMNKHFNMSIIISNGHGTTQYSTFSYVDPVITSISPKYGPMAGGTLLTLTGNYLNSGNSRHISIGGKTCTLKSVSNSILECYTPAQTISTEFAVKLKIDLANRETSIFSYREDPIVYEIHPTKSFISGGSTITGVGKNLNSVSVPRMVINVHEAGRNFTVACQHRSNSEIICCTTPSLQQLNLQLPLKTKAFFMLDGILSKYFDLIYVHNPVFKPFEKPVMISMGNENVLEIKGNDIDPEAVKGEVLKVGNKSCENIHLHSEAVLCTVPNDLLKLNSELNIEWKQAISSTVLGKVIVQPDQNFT

hDR3-Fc = molecular target: T9, hDR3-Fc (human, UniProt Q93038)
T9 construct: Fc fusion; member of the panel m9
T9 sequence (looked up): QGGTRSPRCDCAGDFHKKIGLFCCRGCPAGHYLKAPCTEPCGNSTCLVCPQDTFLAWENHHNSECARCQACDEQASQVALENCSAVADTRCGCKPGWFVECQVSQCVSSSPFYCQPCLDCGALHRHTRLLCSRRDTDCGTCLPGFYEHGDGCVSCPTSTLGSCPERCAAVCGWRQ

hTWEAK-Fc = molecular target: T10, hTWEAK-Fc (human, UniProt O43508)
T10 construct: Fc fusion; member of the panel m9
T10 sequence (looked up): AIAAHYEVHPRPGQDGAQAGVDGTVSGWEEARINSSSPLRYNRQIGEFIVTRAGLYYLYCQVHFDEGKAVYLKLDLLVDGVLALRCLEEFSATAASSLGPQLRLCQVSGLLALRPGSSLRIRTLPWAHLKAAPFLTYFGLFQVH

hVCAM-Fc = molecular target: T11, hVCAM-Fc
T11 construct: member of the panel m9
T11 chain: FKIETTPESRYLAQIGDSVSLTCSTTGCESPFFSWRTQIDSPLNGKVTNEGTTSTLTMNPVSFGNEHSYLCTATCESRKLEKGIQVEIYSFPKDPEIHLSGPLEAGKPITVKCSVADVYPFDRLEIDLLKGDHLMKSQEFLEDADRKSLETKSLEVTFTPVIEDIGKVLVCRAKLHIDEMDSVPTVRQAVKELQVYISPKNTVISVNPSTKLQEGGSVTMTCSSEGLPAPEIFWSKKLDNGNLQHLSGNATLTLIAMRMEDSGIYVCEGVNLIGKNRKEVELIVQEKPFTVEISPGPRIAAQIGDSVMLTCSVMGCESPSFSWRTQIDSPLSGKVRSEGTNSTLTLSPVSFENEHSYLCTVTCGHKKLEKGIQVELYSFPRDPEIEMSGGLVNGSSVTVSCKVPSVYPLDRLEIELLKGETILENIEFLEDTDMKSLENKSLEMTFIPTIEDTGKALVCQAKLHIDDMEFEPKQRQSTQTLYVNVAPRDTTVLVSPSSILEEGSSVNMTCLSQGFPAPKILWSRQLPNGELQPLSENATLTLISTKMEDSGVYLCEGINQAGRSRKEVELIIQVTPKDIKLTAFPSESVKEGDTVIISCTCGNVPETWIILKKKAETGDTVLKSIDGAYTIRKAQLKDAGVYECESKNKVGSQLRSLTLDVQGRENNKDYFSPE

binding result (hCD4): no binding (tested: 1 µg/ml)
binding result (hEpCAM-Fc): no binding (tested: 1 µg/ml)
binding result (hOX40-Fc): no binding (tested: 1 µg/ml)
binding result (hVCAM-1): no binding (tested: 1 µg/ml)
binding result (hBAFFR-Fc): no binding (tested: 1 µg/ml)
binding result (h4-1BB-Fc): no binding (tested: 1 µg/ml)
binding result (hICAM-1-Fc): no binding (tested: 1 µg/ml)
binding result (hCMET-Fc): no binding (tested: 1 µg/ml)
binding result (hDR3-Fc): no binding (tested: 1 µg/ml)
binding result (hTWEAK-Fc): no binding (tested: 1 µg/ml)
binding result (hVCAM-Fc): no binding (tested: 1 µg/ml)
B1: MH5.22 (antibody, IgG1, V domains shown)
VH: QVQLVQSGAEVKKPGASVKVSCKASGYTFTDFYMNWVRQAPGQGLEWMGRIYPASGNTYYAQKFQGRVTMTRDTSTSTVYMELSSLRSEDTAVYYCARGVWYYDYWGQGTLVTVSS
VL: DIQMTQSPSSLSASVGDRVTITCRASQGIRTNLAWFQQKPGKAPKSLIYAASSLQSGVPSRFSGSGSGTDFTLTISSLQPEDFATYYCQQYANYPRTFGGGTKVEIK
notes: IgG1; also called C-KIT-MH5.22
